Paper PMC4495445

B1: Gda1p: N41D (protein)
parent chain: MAPIFRNYRFAIGAFAVIMLILLIKTSSIGPPSIARTVTPNASIPKTPEDISILPVNDEPGYLQDSKTEQNYPELADAVKSQTSQTCSEEHKYVIMIDAGSTGSRVHIYKFDVCTSPPTLLDEKFDMLEPGLSSFDTDSVGAANSLDPLLKVAMNYVPIKARSCTPVAVKATAGLRLLGDAKSSKILSAVRDHLEKDYPFPVVEGDGVSIMGGDEEGVFAWITTNYLLGNIGANGPKLPTAAVFDLGGGSTQIVFEPTFPINEKMVDGEHKFDLKFGDENYTLYQFSHLGYGLKEGRNKVNSVLVENALKDGKILKGDNTKTHQLSSPCLPPKVNATNEKVTLESKETYTIDFIGPDEPSGAQCRFLTDEILNKDAQCQSPPCSFNGVHQPSLVRTFKESNDIYIFSYFYDRTRPLGMPLSFTLNELNDLARIVCKGEETWNSVFSGIAGSLDELESDSHFCLDLSFQVSLLHTGYDIPLQRELRTGKKIANKEIGWCLGASLPLLKADNWKCKIQSA
B2: Gda1p: N41D/N280D/N335D (protein)
parent chain: B1 parent chain
B3: Gda1p: N335D (protein)
parent chain: B1 parent chain
B4: Gda1p: N280D (protein)
parent chain: B1 parent chain

Assay: DAPI staining after 24 h in sporulation medium
Settings: glycan lost; control: gda1Δ strain with wild-type GDA1

other: sporulation efficiency, no change:
B1
B2
B3
B4
